Data taken from patent publication US20090137484A1, “Neuronal Network-Interacting Peptide” (NATIONAL UNIVERSITY OF SINGAPORE, priority 2004, published 2009).
One block for each molecule: values may come before it. Where a SMILES comes first, the peptide text is derived from it. Where no end group is shown, it is not given here.

B2: third Grb4 SH3 domain, Grb4 residues 199-257 (other, human, UniProt O43639 199-257, looked up)
chain: VVQTLYPFSSVTEEELNFEKGETMEVIEKPENDPEWWKCKNARGQVGLVPKNYVVVLSD
modifications: also: His-tag, sequence and removal not given here, 15N-labelled
notes: range 199-257; Expressed in E. coli as a His-tagged protein; It was 15N-labelled for NMR; also called SH3_3
B4: Nogo-A (32-200) (other)
chain: EDEEEEEEEEEEDEDEDLEELEVLERKPAAGLSAAPVPTAPAAGAPLMDFGNDFVPPAPRGPLPAAPPVAPERQPSWDPSPVSSTVPAPSPLSAAAVSPSKLPEDDEPPARPPPPPPASVSPQAEPVWTPPAPAPAAPPSTPAAPKRRGSSGSVDETLFALPAASEPVI
notes: Recombinant, cloned into pET32a and expressed in E. coli

Tests used:
[1] = biological target: T1, Grb4 SH3_3 (third SH3 domain, Grb4 residues 199-257) (Homo sapiens, UniProt O43639); assay: Isothermal titration calorimetry of Nogo fragments with Grb4 SH3_3; format: binding
T1 construct: corresponding to the human Grb4 residues 5-61; 115-171 and 199-257 respectively; His-tag; made in house; host or cells: E. coli BL21
T1 sequence (O43639 198-256): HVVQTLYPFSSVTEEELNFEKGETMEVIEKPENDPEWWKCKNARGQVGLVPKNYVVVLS
Method: (§1) All calorimetric titrations were performed on a Microcal VP ITC machine (Microcal, USA). The protein/peptide samples were dissolved in the 50 mM Tris buffer (pH 7.0), with 3 mM 2-mercaptoethanol. After centrifugation for 15 min, the samples were degassed for 15 min to avoid the bubble formation. The Grb4 SH3 samples with a concentration of 0.025 or 0.05 mM were placed in the 1.4 ml reaction cell and 1.0 mM Nogo samples were loaded into the […] injection syringe. All titrations were performed at 25° C. and the obtained data was fitted using the ORIGIN software (Originlab Corporation). NMR experiments were performed on a 500 MHz Bruker DRX spectrometer equipped with an actively shielded cryoprobe and an 800 MHz Bruker Avance spectrometer (Sattler, M., et al., (1999) Prog. NMR Spectrosc. 34, 93-158.). NMR data was processed with NMRPipe (Delaglio, F et al., (1995) J. Biomol. NMR 6, 277-293) and analysed with NMRView (Johnson, B. A. & Blevins, R. A. (1994). J. Biomol. NMR 4, 603-614.).
Both Nogo-A (1-200) and Grb4 (115-257) were further dissected into different Nogo fragments and two different […] domains based on sequence alignment as detailed in Table 1 and the interactions among them were studied first by NMR HSQC titration followed by isothermal titration calorimetry (ITC) to obtain thermodynamic parameters of the binding interaction. As presented in Table 2, two complete sets of thermodynamic parameters were derived from ITC measurements, one set for the interaction between Nogo-A (32-200) and the third Grb4 SH3 domain and another set for the interaction between the 11-residue Nogo-A (171-181) and the third Grb4 SH3 domain. […] Many factors account for this observation. One possibility is that in the Nogo-A (32-200) protein, this 11-residue binding region is less accessible. Alternatively, the presence of other regions without any significant contribution to the binding will unavoidably reduce the binding affinity.

[2] = biological target: T2, Grb4 SH3_3 (third SH3 domain, Grb4 residues 199-257) (Homo sapiens, UniProt O43639); assay: 1H-15N NMR HSQC titration of Nogo fragments with Grb4 SH3_3; format: binding; conditions: two-fold excess of the peptide (FIG. 1b)
T2 construct: corresponding to the human Grb4 residues 5-61; 115-171 and 199-257 respectively; His-tag; made in house; host or cells: E. coli BL21
T2 sequence (O43639 199-257): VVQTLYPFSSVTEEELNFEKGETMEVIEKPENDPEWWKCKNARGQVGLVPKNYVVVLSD
Method: as §1
(§2) The ^1H-^15N HSQC titration experiments were conducted according to our previous procedure (Song J. (2003) J Biol Chem. 278, 24714-20). […]
To further validate the identified binding interaction, we determined the solution structure of the third Grb4 SH3 domain by use of heteronuclear tripleresonance NMR methodology as described briefly in Examples 1 and 2. […]

[3] = biological target: T3, Grb4 SH3_2 (second SH3 domain, Grb4 residues 115-170) (Homo sapiens, UniProt O43639); assay: 1H-15N NMR HSQC titration of Nogo fragments with Grb4 SH3_2; format: binding; conditions: for Binding detected by NMR: Grb4 fragment SH3_2
T3 construct: corresponding to the human Grb4 residues 5-61; 115-171 and 199-257 respectively; His-tag; made in house; host or cells: E. coli BL21
T3 sequence (O43639 115-171): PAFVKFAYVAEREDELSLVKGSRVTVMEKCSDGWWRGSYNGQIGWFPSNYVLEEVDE
Method: as §1
The ^1H-^15N HSQC titration experiments were conducted according to our previous procedure (Song J. (2003) J Biol Chem. 278, 24714-20). For structure determination, backbone sequential assignments were achieved by analysing HNCACB, CBCA(CO)NH, HNCO experiments while side chain assignments were obtained from (H)CC(CO)NH, H(CCO)NH, HCCH-TOCSY, ^15N-edited TOCSY-HSQC and NOESY-HSQC. Structure determination of the third Grb4 SH3 domain was conducted by a standard CNS (Crystallography and NMR System) protocol as described in our previous publication (Li M, et al., 2004, Eur J. Biochem. 271, 3512-22) with NOE constraints derived from ^15N- and ^13C-NOESY spectra and dihedral angle constraints from TALOS prediction using 5 different chemical shifts. The accepted NMR structure with the lowest energy was selected for analysis and manipulation to generate FIG. 1 by use of MolMol graphic software (Koradi, R., et al., (1996) J. Mol. Graphics. 14, 51-55.). […]

[4] = biological target: B2; assay: ITC at 25 C, peptide in syringe, SH3_3 (50 µM) in cell, Tris pH 7.0; design: ΔS: unit not given here
Method: as §1

[5] = biological target: B2; assay: ITC, comparison of the two sets of Table 2
Method: as §1

Nogo-A (32-200) = biological target: B4; assay: ITC at 25 C, Nogo in syringe, SH3_3 (25 µM) in cell, Tris pH 7.0; design: ΔS: unit not given here
Method: as §1

[6] = biological target: T4, Grb4 SH3_23 (second and third SH3 domains, Grb4 residues 115-257) (Homo sapiens, UniProt O43639); assay: 1H-15N NMR HSQC titration of Nogo fragments with Grb4 SH3_23; format: binding; conditions: four-fold excess of unlabelled Nogo protein; pH 6.8, 20° C. (FIG. 2)
T4 construct: Grb4 (115-257) containing the second and third SH3 domains were expressed; His-tag; made in house; host or cells: E. coli BL21
T4 sequence (O43639 115-257): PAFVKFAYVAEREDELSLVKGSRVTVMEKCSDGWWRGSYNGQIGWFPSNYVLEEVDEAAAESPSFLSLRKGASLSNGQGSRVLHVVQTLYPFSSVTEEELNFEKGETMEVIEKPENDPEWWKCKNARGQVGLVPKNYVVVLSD
Method: as §1, §2
The present inventors also determined whether a cross-talk existed between Nogo and Eph receptor-ephrinB mediated signalling networks, and whether Grb4 was the convergence point. […]

[7] = biological target: T4, Grb4 SH3_23 (second and third SH3 domains, Grb4 residues 115-257); assay: Isothermal titration calorimetry of Nogo fragments with Grb4 SH3_23; format: binding; conditions: Grb4 fragment SH3_23
Method: as §1
(§3) Both Nogo-A (1-200) and Grb4 (115-257) were further dissected into different Nogo fragments and two different […] domains based on sequence alignment as detailed in Table 1 and the interactions among them were studied first by NMR HSQC titration followed by isothermal titration calorimetry (ITC) to obtain thermodynamic parameters of the binding interaction. […]

[8] = biological target: B2; assay: ITC at 25 C, Nogo in syringe, SH3_3 (25 µM) in cell, Tris pH 7.0; design: ΔS: unit not given here
Method: as §1

[9] = biological target: T3, Grb4 SH3_2 (second SH3 domain, Grb4 residues 115-170); assay: Isothermal titration calorimetry of Nogo fragments with Grb4 SH3_2; format: binding; conditions: Grb4 fragment SH3_2
Method: as §1, §3

[10] = ITC at 25° C., Tris pH 7.0, Nogo in syringe, SH3_3 in cell (25 or 50 μM)

Binding detected by ITC ([1]; Grb4 fragment SH3_3): Very weak
Molecule: Ac-ARPPPPPPAS-NH2 [Nogo-A (141-150), chemically synthesised peptide, fragment 141-150 of Nogo A]

HSQC peaks of the 15N-labeled third SH3 domain undergoing a significant shift [2]: ~50% | Ka [1, 10]: 357000 ± 21000 M⁻¹ | Kd [1, 10]: 2.8 µM | Stoichiometry n [1, 10]: 0.95 ± 0.068 | ΔH [1, 10]: −3,310 ± 499 cal/mol | ΔS [1, 10]: 14.3 cal/(mol·K) | Binding affinity to the third Grb4 SH3 domain relative to Nogo-A (32-200) ([1]; higher than Nogo-A (32-200)): about 30 fold | Binding with the second Grb4 SH3 domain (specificity statement) [3]: no significant binding
Molecule: CC(=O)N[C@@H](CO)C(=O)N[C@H](C(=O)N1CCC[C@H]1C(=O)N[C@@H](C)C(=O)N[C@@H](C)C(=O)N1CCC[C@H]1C(=O)N[C@@H](CCCCN)C(=O)N[C@@H](CCCNC(=N)N)C(=O)N[C@@H](CCCNC(=N)N)C(=O)NCC(=O)N[C@@H](CO)C(N)=O)[C@@H](C)O [Nogo-A (171-181), Ac-STPAAPKRRGS-NH2] (Ac-STPAAPKRRGS-NH2)

Ka [4]: 357000 M⁻¹ | Stoichiometry n [4]: 0.95 | ΔH [4]: -3.31 kcal/mol | ΔS [4]: 14.3 | fold higher binding affinity than Nogo-A (32-200) [5]: ~30 fold
B1: Nogo-A (171-181) Ac-STPAAPKRRGS-NH2 (peptide)
peptide: Ac-STPAAPKRRGS-NH2
notes: Chemically synthesised by the Fmoc method; also called 11-residue Nogo-A (171-181) peptide

Molecule: B2
Ka (Nogo-A (32-200)): 11500 M⁻¹ | Kd (Nogo-A (32-200)): 87 µM

Shifts of HSQC peaks of 15N-labeled Grb4 (115-257) [6]: significant shifts of the HSQC peaks | Binding detected by NMR [3]: Very weak
B3: Nogo-A (1-200): recombinant N-terminal fragment of human Nogo-A, residues 1-200, expressed in E. coli (protein)
chain: MEDLDQSPLVSSSDSPPRPQPAFKYQFVREPEDEEEEEEEEEEDEDEDLEELEVLERKPAAGLSAAPVPTAPAAGAPLMDFGNDFVPPAPRGPLPAAPPVAPERQPSWDPSPVSSTVPAPSPLSAAAVSPSKLPEDDEPPARPPPPPPASVSPQAEPVWTPPAPAPAAPPSTPAAPKRRGSSGSVDETLFALPAASEPVI

Molecule: B4
Ka [1, 10]: 11500 ± 2200 M⁻¹ | Kd [1, 10]: 87 µM | Binding detected by ITC [7]: Very weak | Stoichiometry n [8]: 1.13 | ΔH [8]: 69.6 kcal/mol | ΔS [8]: 252 | Binding detected by NMR [3]: Very weak | Binding detected by ITC [9]: Very weak
